Measured values as given in the supplement of paper PMC12042874.
± gives the uncertainty stated by the source.

assay: amyloid nucleation score (Sup35N fusion, yeast selection) (log enrichment); library NNK3; higher = more nucleation; inactive = no reads after selection
In short: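 Growth for 7 days at 30°C on medium lacking adenine and uracil followed a 24-hour induction with 100 μM copper sulfate of psi-negative yeast expressing peptides of 20 random codons fused to Sup35N. Input and output plasmid inserts were sequenced with Illumina, and sequences with under 100 input reads were excluded. Nucleation score is the DiMSum log enrichment of output over input reads, centred on the mode score of non-aggregating sequences.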

Amyloid nucleation score, 1.32 ± 0.095:
ISTVFLVISSAGTCPSHDKE

Amyloid nucleation score, -0.336 ± 1.1:
YGFAYV

Amyloid nucleation score, -0.032 ± 0.33:
YCSCMLTGNMGRSH

Amyloid nucleation score, 0.103 ± 0.24:
LNSGIS

Amyloid nucleation score, -0.056 ± 0.57:
CTRCVFSIR

Amyloid nucleation score, 0.078 ± 0.66:
LNSTVSGKFMLL

Amyloid nucleation score, -0.01 ± 0.48:
GLVWTW

Amyloid nucleation score, 1.89 ± 0.072:
RILLLDTEFRLPNLPTS

Amyloid nucleation score, 0.163 ± 0.25:
FSMAFYMYG

Amyloid nucleation score, 0.862 ± 0.11:
LLCGSCWFYTMGHVSPNKRI

Amyloid nucleation score, 2.42 ± 0.072:
NVRSNFLVADVVVFVRKIVR

Amyloid nucleation score, 0.036 ± 0.88:
FLAWYMTFMV

Amyloid nucleation score, 2.58 ± 0.072:
IFVWGNNLTMSLSVFNNA

Amyloid nucleation score, inactive:
SVGFVHFVNTGDQKYERRVD
RLFFVSMAF
HIMSEGHSLAMGCTCSNNYP
YRKWGCWHRTFRLIYCTVVL
YDVFLIL
QFLRGVMPAGMECAHATMRW
NQVISFWYSIQYCYEYSRNS
ILPTAKKSKCGSHL
RYPSDSIGFISLDTGGCGVR
GLSHESTYKEEFESSATSGV
SSLCYTHRACTCNFTKVDSF
NGGIERLSWVRVWFRHTFQS
VCGASGCKWAVTNSRHDGNG
SSYLGECVKRPDPPRISKTL
VLMISCTS
FLIISCS
CGMRNLR
LRPRYSAYILQSRR
VVKFFVWLDVFYVWGLAGII
HKYKQIWMFPEGPV
LTTICS
KNINVLYHICAALKSCAFCT
RWIFIT
PSTGLNSVKNRIDVSCGFR
GTLWNSIFACVFQCSERSIM
GGCGMDV
HKGAQPVKVKSGQSDTRPPS
SILLIFCLSKTRFSVMSFLP
PGKYGLV
VFNFPQSDGNRSYMDFMAIQ
HMIKVIVLCMMRFFIKSKNS
GCREICFNLCFKRSLTCALL
AVISKDCDSYAIYHHVFHST
YSGIAS
FRDCMVINDMVVWDFCTSCA
GGSVWWY
CNLVDSYNSKRMVNSTSMPF
RNFMSFRWPVLKLQRRVP
FIRFWASVSTNCRLPFLLNR
GSYMYKKGLQF
QMEKHLRAASVSVCTSQSPV
YFRSLGLAIGCNR
AWHCLDYYRSGSVIDRRVGM
VAYNRGSQCCR
MRCGKSL
DGGRTSLLLTEKKVR
YRDCISEGLKLSNWNELLGK
LFTSFYVSPYM
AVLCVCIHRLPFYFPPLLKM
YPLLEPSRVLVVCDGKGGVP
REWRSNDGFFGSDSGVVGHT
YFAVMGGITLHLFAVIRSCL
FFFYFLRFSDFNWFINWLIS
RRYPRTLYERVSCVS
DDASFIMERI
PTLLTMRQEQRHAKNFRSNL
YCFSFAISCNDMRLFFLVNV
MDRIFWD
DTMNLRWSVWRRHVWCLTGE
LQYYLRPRFNLRLYGAIPPA
LRFMRSI
PNLMLPCTSGRELMKVSNVL
LVYFFFRVYNGPRMGS
AVSRDCELYKVEYYLVQ
GGNGVPRVWSVFIRRVWNSV
QCYCGLTPTANLDPLMRIWD
LNCLRMSLLC
CWFNPDPGLKWF
NTLKSV
CLGYRFVWGVPFVKFDRIIW
GMRSSLNIDAFGSGAELMHW
TSIIRMAPRPTHSRVIWFKV
YSFVAVSSFDREHSRIFGVS
LSYGRGVTVLYVLWSYFISR
GYLWVLRLPGVSEFIEMDLQ
SDYSLYWFK
GHWTLDYEFKYPYGQQYHVP
VSEFFFP
NIGYSLWRHYTNSRG
ITTFVVMCDLVVLVC
LSPWVSMILVKFKLHLYLRR
CGWMTHSEL
SLLGSRNRRSGWTQFVKLVW
RFGAGILRSSNQDSGFRVTG
TGSFIIRISSSRTMLW
KLWPM
PVQQSGLVWRLGAIVVC
YIDFVPLVYTRKFDGEETCI
GGLYKYKNRTRLFMSWRVSR
FYSCKSTAGCSTTIEGARNY
PVLGSHRIVLSFDKIYLSRD
SVSSLRYY
LDGQFNNLYMYPSFYQEVAG
LLIFYGKLMIWGSGHSDTFR
FNSKRW
KESVYPTWHMRWFVYCELVL
LLPDRFANPGETWVLNYKLM
SFESVVYYSWRFVAKFKFWT
GRGYSSSTLWVLGWFD
SVDVYRSCEVGKCGGSYSTF
MHYICAGSGSWAI
SCRFRVLRVFLGQTMYSSSI
HRIVTPPNDLWGVWASTV
RQGGVNRNSVSMHSHGYRDC
DLIQLDALWDVRTHWTWGTP
PKNFLSVETF
IYRTPSADDLSRDAYIGFYR
KSGTCK
VGESDKLHFAH
CAVALLNHRG
LYSIWGRNRGHGMIGWDPLT
VFPYFELCVFLPSYFREAET
LTMVWDNIAMYMHWHMTTPI
SGTFYANVWFRFISFGWYLR
PDDSRRNPRFG
DMYPFPVCR
YILSTLAFFGDRNYDMVLGC
DLDFFGGCLFFHQGTIFYDG
LTNCRHSWWEDTTYSMWEVQ
REPVRLQNKRLPRCQRREWC
IFACLHGAREVFLFQWLGFE
IVSYSGRNRDAHLKSS
IFEVFSVNKV
YDELY
VGDLLCPIASLGSRRNLWCR
FFEFSTSVVYN
FGRVT
YVLELGAGGPKNMIHDMNAD
VEFIEFMYDPSYYVSNQNST
YTSGRSVSGRCHLWELKAIK
WLHKH

Amyloid nucleation score, 2.52 ± 0.089:
RHLDNFNINVTLNLSFRVGM

Amyloid nucleation score, 2.56 ± 0.062:
WTDNSVFLTVVINDIRTSTS

Amyloid nucleation score, 2.78 ± 0.06:
YIGCCWYSSCDRVSYRYSVM

Amyloid nucleation score, 0.693 ± 0.097:
DAFIGYHYLGGLISGIWSSR

Amyloid nucleation score, -1.05 ± 2.5:
ANPGG

Amyloid nucleation score, 2.15 ± 0.088:
RLLGTRSYTIWACYTCAVFM

Amyloid nucleation score, 0.356 ± 0.34:
GWMNACT

Amyloid nucleation score, 0.121 ± 1:
LQRYRPADMRVGASSSGNTK

Amyloid nucleation score, -0.487 ± 1.4:
LTAVLLTPYSLFGFALWWFV

Amyloid nucleation score, 1.67 ± 0.079:
VHYKVKGSLPFCCGYFNSLW

Amyloid nucleation score, 3.05 ± 0.058:
PIFFCFNDVWTGNVVLDAMG

Amyloid nucleation score, -0.418 ± 0.98:
NGSSFCAKCVNVW

Amyloid nucleation score, -0.432 ± 0.76:
CCCTNDMWTTGPNCS

Amyloid nucleation score, 1.09 ± 0.11:
TMSIFDPVE

Amyloid nucleation score, 1.55 ± 0.12:
TFFFTVLG

Amyloid nucleation score, 2.09 ± 0.054:
YINFISWNVCVSCLFWLDSV

Amyloid nucleation score, -0.793 ± 1.3:
YYLSTTGMWNFVSSNGALYG

Amyloid nucleation score, -0.151 ± 1.1:
SFTAYVASLA
